How the values were obtained:
Assay in all cases: purified protein
[1] = system: NC(=O)/C=C/C(=O)NC[C@H](N)C(=O)O; conditions: 5 mM L-valine, 10 mM ATP, 12 mM MgCl2, HEPES pH 8, room temperature
[2] = system: NC(=O)[C@@H]1O[C@H]1C(=O)NC[C@H](N)C(=O)O; conditions: 5 mM L-valine, 10 mM ATP, 12 mM MgCl2, HEPES pH 8, room temperature
[3] = system: NC(=O)/C=C/C(=O)NC[C@H](N)C(=O)O; format: biochemical, Pantoea agglomerans; conditions: adenylation (A) domain, ATP, Mg2+, pH 7.5, room temperature

What does the source list for DdaF (Pantoea agglomerans)?
Km [1]: 72 ± 34 µM; kcat [1]: 0.35 ± 0.05 s⁻¹; kcat/Km [1]: 4830 M⁻¹ s⁻¹; Km [2]: 53 ± 7 µM; kcat [2]: 3.02 ± 0.117 s⁻¹; kcat/Km [2]: 56700 M⁻¹ s⁻¹

Which Km [3] does the source give for DdaD (Pantoea agglomerans) here?
The Km was 420 ± 80 µM.

And the kcat [3]?
The kcat was 1.07 ± 0.083 s⁻¹.

— publication PMC2974046
